Test results reported in the supplement of paper PMC10126150.
± gives the standard deviation of the averaged measurements.

System: ATP
Test: switch fluorescence ratio, 500 uM ATP over buffer (Cy3 cluster intensity, sum of 5 cycles each) (fold (ratio)); higher = stronger signal-on switching upon ATP binding; sequences stand for … in TCGTCGGCAGCGTCAGATGTGTATAAGAGACAGTTTTTTTTTTTTTTTTTTTTTTTTT…TC
Settings: aptamer strand: ATP DNA aptamer (quencher-CACCTGGGGGAGTATTGCGGAGGAAGG + anchor), 100 nM annealed; ATP concentration: 500 uM
In short: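 Between each of five buffer/ATP cycles, the flow-cell was stripped with NaOH and re-annealed. Each cycle imaged Cy3-labelled switching-strand clusters, annealed to 100 nM quencher-labelled ATP aptamer on a modified Illumina MiSeq flow-cell, first in selection buffer and then after 15 min with 500 uM ATP at 22 °C. The fluorescence ratio is summed target-cycle over summed buffer-cycle Cy3 intensity per cluster, averaged per switch-domain sequence, with clusters outside 100-1000 RFU excluded.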
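Also: ATP exposure 15 min at 22 °C before imaging.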

Row | Sequence | switch fluorescence ratio
1 | TGTTTCATTG | 0.976 ± 0.018
2 | CCGTTTATGA | 1.1 ± 0.047
3 | GAAGGTAGGG | 0.99 ± 0.051
4 | AATGAACTCT | 1.02 ± 0.034
5 | GGGCATAATG | 1.02 ± 0.041
6 | GGAGTGAGGG | 0.985 ± 0.05
7 | AGTAAAATAG | 0.968 ± 0.017
8 | TTAGTCAATG | 0.999 ± 0.022
9 | TATCGTTGGA | 1.03 ± 0.018
10 | GAACTAACAG | 1.03 ± 0.021
11 | CGCTATTGGG | 1.046 ± 0.0086
12 | TTAAAGGGTT | 1.04 ± 0.12
13 | GGCTATTCCT | 1.01 ± 0.0012
14 | AAATTGAGGC | 0.96 ± 0.027
15 | AGTTAAGAGC | 1.01 ± 0.038
16 | AACCATTGCT | 1.048 ± 0.0053
17 | CGTTATGAGG | 0.991 ± 0.011
18 | GGTTTCGAAT | 0.98 ± 0.049
19 | TAGGGATTCC | 1.014 ± 0.0079
20 | ATCTTAATTG | 1.005 ± 0.0075
21 | AATGGCTCGC | 0.996 ± 0.061
22 | TTTGCCACTT | 0.991 ± 0.011
23 | AGGATCTCGA | 0.996 ± 0.033

Row | Sequence | switch fluorescence ratio
24 | CGGGGGGGAC | 1.11 ± 0.16
25 | TTCGGGGAGG | 1.02 ± 0.019
26 | AGAGGGTCCA | 0.962 ± 0.021
27 | ATATTGATAG | 1 ± 0.0064
28 | ATGATCGCGT | 1.01 ± 0.024
29 | ATCATAATAC | 1.406 ± 0.0065
30 | TAAGGACGGA | 1.01 ± 0.071
31 | GTTATGCGCC | 1.02 ± 0.028
32 | GAAAGGTATT | 0.975 ± 0.021
33 | ATTAGTGTTC | 0.987 ± 0.043
34 | ATTTTTAGAG | 1.01 ± 0.023
35 | TCGGGGCTAG | 0.989 ± 0.025
36 | TTTTTAGTCT | 1 ± 0.027
37 | GGGGGAGTGC | 1.06 ± 0.12
38 | CAGGGCCATA | 1.02 ± 0.0042
39 | GGATGTCAGG | 1 ± 0.045
40 | GGTCTAGCCT | 0.9858 ± 0.0066
41 | TTTACTAGTT | 1.03 ± 0.037
42 | AGAAAGGGCC | 0.966 ± 0.055
43 | TCAAACGCTT | 1.12 ± 0.15
44 | AAAATGAAGA | 0.993 ± 0.026
45 | AGCATGCCTG | 1.02 ± 0.058
46 | GGCGGGGGGA | 1.01 ± 0.032

Row | Sequence | switch fluorescence ratio
47 | CGACGGGGGG | 1 ± 0.017
48 | CGCTGAGGTA | 1 ± 0.03
49 | ACAACCGTTT | 1.02 ± 0.027
50 | ATTGGAATGC | 1.26 ± 0.047
51 | TAAGGGGCAT | 1.04 ± 0.093
52 | AGCTGTGTGG | 1.01 ± 0.012
53 | AGGTTAAGAC | 0.99 ± 0.044
54 | TTGCAGGAGG | 1 ± 0.019
55 | TTTGAGCGTT | 1.01 ± 0.04
56 | GAGTACTTAG | 1.03 ± 0.011
57 | CCAGGCGATT | 1.07 ± 0.095
58 | GGTTTAAGGG | 0.972 ± 0.023
59 | TTGCCGGGAG | 1.02 ± 0.066
60 | CAGTTTCGGG | 1.004 ± 0.01
61 | TGGGTAATTT | 1.03 ± 0.055
62 | AGGGACACTA | 1.07 ± 0.028
63 | TGCTATTGGT | 1.03 ± 0.035
64 | ATTTACGTAT | 1.06 ± 0.044
65 | TGTGTTAGAA | 1.01 ± 0.015
66 | AATTAGAGGG | 0.984 ± 0.046
67 | ACCGTTCTGA | 1.016 ± 0.0092
68 | ATTGGGATT | 0.966 ± 0.046
69 | GGGAGTGTGC | 1.016 ± 0.0053

Row | Sequence | switch fluorescence ratio
70 | ATTTTGCAGG | 0.997 ± 0.046
71 | GGGAATGCGG | 0.99 ± 0.03
72 | GGAAGTCTCA | 0.975 ± 0.012
73 | GCTATATCTA | 1.02 ± 0.022
74 | CGGCTCTTAG | 0.99 ± 0.011
75 | GCCCGGGGCT | 1.028 ± 0.0057
76 | GCAATTGAGT | 0.997 ± 0.036
77 | TGCACGCAGC | 1.25 ± 0.09
78 | TGGGTGATTA | 0.9846 ± 0.005
79 | CTAGTCACCG | 0.999 ± 0.019
80 | TAGTGAGAGC | 1 ± 0.058
81 | TAGAGGAGCT | 1 ± 0.038
82 | AGGAGGCTAG | 1.02 ± 0.045
83 | TTAACGGTTC | 0.983 ± 0.017
84 | ATTGAGGCAG | 0.9824 ± 0.0028
85 | TTGGATTGGC | 0.978 ± 0.023
86 | GTTATTTTCG | 0.987 ± 0.028
87 | CGCTACTATT | 1.12 ± 0.087
88 | TTTTAGAGCT | 1.02 ± 0.018
89 | TTTGACCTGG | 0.981 ± 0.043
90 | TTGCATATTT | 1.05 ± 0.033
91 | GCTTGGTTTT | 1.01 ± 0.013
92 | GAGGGAAGAT | 0.999 ± 0.014

Row | Sequence | switch fluorescence ratio
93 | TGTGCTATGT | 0.995 ± 0.028
94 | ATCGTTACGA | 1.02 ± 0.026
95 | TTTGGGACTC | 0.9731 ± 0.0023
96 | GGCGTATTGG | 0.988 ± 0.027
97 | TACGTTCTGA | 0.999 ± 0.049
98 | TTAGAGTACG | 1.036 ± 0.0075
99 | GTTGTATCAT | 0.98846 ± 0.00088
100 | AGGCTTTTTG | 0.969 ± 0.015
101 | TTTTGAGTAC | 1.01 ± 0.042
102 | GGTGAGGGGT | 0.997 ± 0.035
103 | CGGTGCGCTG | 0.9964 ± 0.0016
104 | ATAACACATG | 1.01 ± 0.032
105 | CTAAAGGTTT | 1.004 ± 0.003
106 | TTCTTAAACA | 1.02 ± 0.013
107 | AAACATAGGG | 1.02 ± 0.038
108 | AGGGGGCTCG | 1 ± 0.024
109 | AGGTTGGAGA | 0.992 ± 0.023
110 | ATGTATTGCG | 0.988 ± 0.044
111 | ATTTTGCCTT | 1 ± 0.015
112 | TACGGCAGGG | 1.059 ± 0.0024
113 | TATCGGGTGT | 1.11 ± 0.092
114 | TGGAGTGCTT | 0.983 ± 0.0022
115 | GGACTGCTGG | 1.03 ± 0.033

Row | Sequence | switch fluorescence ratio
116 | TCACTATAGG | 1.02 ± 0.036
117 | TTGGGGTCCA | 0.977 ± 0.015
118 | GGTTTTTTGG | 0.98 ± 0.021
119 | AAAAGGGGGA | 1.02 ± 0.022
120 | CGTCTGGCGA | 1.02 ± 0.014
121 | ACGCGTGAAG | 1.03 ± 0.021
122 | GCGCTTGTAC | 2.36 ± 0.55
123 | ATAATACGGG | 1.03 ± 0.017
124 | AGGGGGTTAA | 0.996 ± 0.017
125 | AGAGGGTTAA | 0.988 ± 0.031
126 | TTTTTACGTT | 1.03 ± 0.021
127 | TAAAAGGGAG | 1.03 ± 0.058
128 | TTTCATTTGG | 1.01 ± 0.03
129 | TGAATAGTGT | 0.996 ± 0.044
130 | CTTAGCTCTT | 1.03 ± 0.022
131 | GAGGATCTGT | 0.961 ± 0.023
132 | TATTAGGGCA | 0.9717 ± 0.0097
133 | GCGTTATACA | 0.9979 ± 0.0039
134 | CAGGGATGCT | 1.02 ± 0.035
135 | AGAGGGAAGA | 1.01 ± 0.037
136 | TCGTGCTACA | 0.97 ± 0.041
137 | CAGCTGGGGT | 1.01 ± 0.039
138 | AGGGACATAT | 1.018 ± 0.006

Row | Sequence | switch fluorescence ratio
139 | ATGGCCTCGG | 1.02 ± 0.025
140 | ACTGAATTGG | 1.001 ± 0.0029
141 | GAACTAATAT | 1.01 ± 0.017
142 | AGAGTAGAGT | 0.9995 ± 0.0088
143 | TTGGTTGCG | 1.02 ± 0.026
144 | CCTTTGTTTT | 1.05 ± 0.091
145 | TTCAGTATTT | 1.08 ± 0.09
146 | AAGTATGTCT | 1 ± 0.039
147 | CATACGGGGG | 1.03 ± 0.025
148 | TTGGTGACGG | 0.986 ± 0.013
149 | TCGATTATTT | 1.016 ± 0.0059
150 | TTTATATATG | 1 ± 0.024
151 | TGTAATAGGG | 0.979 ± 0.013
152 | AAGTTTGCTA | 1.01 ± 0.031
153 | AGGGCATCGG | 1.021 ± 0.0044
154 | GTTGGGAGGT | 0.982 ± 0.015
155 | CTAGGAGATA | 0.9736 ± 0.0014
156 | CACTAGGGGG | 1.05 ± 0.0083
157 | CGGGATGCCC | 1.01 ± 0.047
